Read-outs that look alike come from different tables or passages of the source.
How the values were obtained:
[1] = system: H3_1–20 K9me1 peptide; test: Fluorescence polarization binding to H3K9me1 peptide
Protocol: (§1) Polarization assays with fluoresceinated H3_1–20 K9me1 or K9me2 peptides, 147 bp 601 DNA template, and core nucleosomes were performed and Kd values estimated as described ([11]) with the following modifications: The reaction buffer was 100 mM Tris pH 8, 100 mM KCl, 1 mM MgCl2, 20 μM ZnSO4, 10 mM BME, 0.1% NP-40. The concentration of peptides and nucleosomes was 150 nM and 200 nM for DNA. Polarization measurements were conducted on a Biotek Cytation 5 (peptide and nucleosome) or Molecular Devices Spectramax (DNA) plate reader with low-volume plates (Corning) in either 10 μl (peptide, nucleosome) or 40 μl (DNA) total volume.

[2] = system: H3_1–20 K9me2 peptide; test: Fluorescence polarization binding to H3K9me2 peptide
Protocol: as §1

[3] = system: unmethylated (H3K9me0) mononucleosomes; test: Fluorescence polarization binding to unmethylated mononucleosome
Source text: (§2) Histone proteins and nucleosomes were purified as described ([11], [26]) with modifications (see Supporting methods). For fluorescence polarization, nucleosomes were reconstituted with a 5ʹ fluoresceinated DNA template. H3K9 dimethylation was installed via Methyl-Lysine Analog (MLA) technology as described ([10], [26]). K9 MLA-monomethylated H3 was purchased from Active Motif. H3K27A was introduced by site-directed mutagenesis and purified as described ([26]).
as §1

[4] = system: H3K9me1 monomethylated mononucleosomes; test: Fluorescence polarization binding to H3K9me1 mononucleosome
Source text: as §2, §1

[5] = system: H3_1–20 peptide; test: H3 tail peptide methylation kinetics (multiple turnover); assay type: biochemical; details: Michaelis–Menten, 9 μM 3H-SAM + 1000 μM cold SAM, 0.4 to 0.8 μM enzyme, pH 8, duplicates, 95% CI: G9a-G9a 24.6-34.6, GLP-GLP 9.5-15.5, G9a-GLP 26.0-34.5, G9aS-GLP 20.5-28.3, listed as GLP
Protocol: (§3) Substrate peptides or nucleosomes were mixed in a solution containing 9 μM tritiated S-Adenosyl Methionine (SAM, PerkinElmer) cofactor, and reactions were initiated upon addition of 0.4 to 0.8 μM enzyme. Peptide reactions were supplemented with 1000 μM cold SAM to fully saturate the SAM-binding pocket (Fig. S3). Due to signal limitations, nucleosome reactions were not supplemented with SAM (see Supporting methods). Reactions were run in 100 mM Tris pH 8, 100 mM KCl, 1 mM MgCl2, 20 μM ZnSO4, 10 mM BME and quenched with laemmli buffer. Peptide reactions were performed as described ([11]). Nucleosome methylation reactions were read out via autoradiography as described ([11]), except that proteins were separated on an 18% SDS PAGE gel.
All methylation reactions (except Fig. S4A) were performed under Multiple Turnover conditions ([25]). To determine initial rates, methylation time courses were traced at various concentrations of H3K9-containing substrate while keeping the concentration of SAM and enzyme constant. Plots of initial rate versus concentration H3K9 substrate measured in duplicate or triplicate were fit to V = Vmax∗[S]/(KM + [S]) using Prism software to extract KM and kcat (or kobs) values as well as the 95% confidence interval bounds of the fit. See Supporting methods for special considerations for nucleosome kinetics.

[6] = system: mononucleosome (core nucleosome); test: Mononucleosome methylation kinetics (multiple turnover); assay type: biochemical; details: initial rates, 10 μM histone tails (Fig. 3F)
Source text: as §2
Substrate peptides or nucleosomes were mixed in a solution containing 9 μM tritiated S-Adenosyl Methionine (SAM, PerkinElmer) cofactor, and reactions were initiated upon addition of 0.4 to 0.8 μM enzyme. Peptide reactions were supplemented with 1000 μM cold SAM to fully saturate the SAM-binding pocket (Fig. S3). […] Nucleosome methylation reactions were read out via autoradiography as described ([11]), except that proteins were separated on an 18% SDS PAGE gel. […]
(§4) Detailed E. coli protein expression, purification, and tag cleavage methods Cells co- expressing His and MBP constructs were lysed on ice via sonication in lysis buffer (100mM Tris pH 8, 300mM NaCl, 10% glycerol (v/v), 0.1% Tween-20, with freshly added 1mM β-mercaptoethanol (BME), 1mM PMSF, 5mM Benzamidine, 200µM Leupeptin, Aproptinin, Pepstatin, Phenantroline). […] All protein constructs were quantified using SDS page with BSA standards and Sypro Red stain. […]

[7] = system: 10-nucleosome arrays; test: Nucleosome array methylation, initial rate; assay type: biochemical; details: 2 μM histone tails, nonsaturating (Fig. 3H)
Protocol: as §3
All methylation reactions (except Fig. S4A) were performed under Multiple Turnover conditions ([25]). […]
as §4

Row | Molecule | affinity for H3K9me1 peptide, in words [1] | affinity for H3K9me2 peptide, in words [2] | affinity for H3K9me1 peptide, in words ([1]; listed as GLP) | reduced binding to me2 peptides (fold) ([2]; GLP ANK-SET homodimer, reduction as worded (reference me1 binding or ANK alone not stated)) [times] | binding to nucleosomes, in words [3] | Kd ([3]; 147 bp 601 DNA 5ʹ fluorescein-labeled nucleosomes, 150 nM, pH 8, 100 mM KCl, 0.1% NP-40, 95% CI (μM): G9a 6.4-8.6, G9a-GLP 5.6-7.6, GLP-GLP 17.4-41.5, read-out: Kd, unmethylated (me0) mononucleosome) [µM] | binding to H3K9me1 nucleosomes, in words [4] | kcat, H3_1–20 peptide [5] [s⁻¹] | activity on mononucleosomes near saturation, in words [6] | initial rate on nucleosome arrays, in words [7]
1 | full-length G9a: E. coli expressed MBP:FL-G9a (protein) MRGLPRGRGLMRARGRGRAAPTGGRGRGRGGAHRGRGRPRSLLSLPRAQASWAPQLPAGLTGPPVPCLPSQGEAPAEMGALLLEKEPRGAAERVHSSLGDTPQSEETLPKANPDSLEPAGPSSPASVTVTVGDEGADTPVGAASLIGDEPESLEGDGGRIVLGHATKSFPSSPSKGGACPSRAKMSMTGAGKSPPSVQSLAMRLLSMPGAQGAATAGPEPSPATTAAQEGQPKVHRARKTMSKPSNGQPPIPEKRPPEVQHFRMSDDMHLGKVTSDVAKRRKLNSGSLSEDLGSAGGSGDIILEKGEPRPLEEWETVVGDDFSLYYDAYSVDERVDSDSKSEVEALAEQLSEEEEEEEEEEEEEEEEEEEEEEEEEDEESGNQSDRSGSSGRRKAKKKWRKDSPWVKPSRKRRKREPPRAKEPRGVNGVGSSGPSEYMEVPLGSLELPSEGTLSPNHAGVSNDTSSLETERGFEELPLCSCRMEAPKIDRISERAGHKCMATESVDGELLGCNAAILKRETMRPSSRVALMVLCEAHRARMVKHHCCPGCGYFCTAGTFLECHPDFRVAHRFHKACVSQLNGMVFCPHCGEDASEAQEVTIPRGDGGTPPIGTAAPALPPLAHDAPGRADTSQPSARMRGHGEPRRPPCDPLADTIDSSGPSLTLPNGGCLSAVGLPPGPGREALEKALVIQESERRKKLRFHPRQLYLSVKQGELQKVILMLLDNLDPNFQSDQQSKRTPLHAAAQKGSVEICHVLLQAGANINAVDKQQRTPLMEAVVNNHLEVARYMVQLGGCVYSKEEDGSTCLHHAAKIGNLEMVSLLLSTGQVDVNAQDSGGWTPIIWAAEHKHIDVIRMLLTRGADVTLTDNEENICLHWASFTGSAAIAEVLLNAQCDLHAVNYHGDTPLHIAARESYHDCVLLFLSRGANPELRNKEGDTAWDLTPERSDVWFALQLNRKLRLGVGNRAVRTEKIICRDVARGYENVPIPCVNGVDGEPCPEDYKYISENCETSTMNIDRNITHLQHCTCVDDCSSSNCLCGQLSIRCWYDKDGRLLQEFNKIEPPLIFECNQACSCWRSCKNRVVQSGIKVRLQLYRTAKMGWGVRALQTIPQGTFICEYVGELISDAEADVREDDSYLFDLDNKDGEVYCIDARYYGNISRFINHLCDPNIIPVRVFMLHQDLRFPRIAFFSSRDIRTGEELGFDYGDRFWDIKSKYFTCQCGSEKCKHSAEAIALEQSRLARLDPHPELLPDLSSLPPINT | no discernable affinity for me1 or me2 peptides | no discernable affinity for me1 or me2 peptides | – | – | – | – | – | – | – | –
2 | GLP-GLP: homodimer of GLP truncated to the C-terminal ANK and SET domains (ANK-SET) (protein) MAAADAEQAVLAKQETKQDCCMKTELLREDTPMAADEGSTEKQEGETPMAADGETNGSCEKSGDPSHLNAPKHTQENTRASPQEGTNRVSRVAENGVSERDTEVGKQNHVTADDFMQTSVIGSNGYFLNKPALQGQPLRTPNILTSSLPGHAAKTLPGGASKCRTLSALPQTPTTAPTVPGEGSADTEDRKPTASGTDVRVHRARKTMPKSILGLHAASKDHREVQDHKEPKEDINRNISECGRQQLLPTFPALHQSLPQNQCYMATTKSQTACLPFVLAAAVSRKKKRRMGTYSLVPKKKTKVLKQRTVIEMFKSITHSTVGAKGEKALDDSALHVNGESLEMDSEDEDSDELEDDEDHGAEQAAAFPTEDSRTSKESMSETDRAAKMDGDSEEEQESPDTGEDEDGGDESDLSSESSIKKKFLKRRGKTDSPWIKPARKRRRRSRKKPSSMLGSEACKSSPGSMEQAALGDSAGYMEVSLDSLDLRVRGILSSQTENEGLASGPDVLGTDGLQEVPLCSCRMETPKSREISTLANNQCMATESVDHELGRCTNSVVKYELMRPSNKAPLLVLCEDHRGRMVKHQCCPGCGYFCTAGNFMECQPESSISHRFHKDCASRVNNASYCPHCGEEASKAKEVTIAKADTTSTVTLAPGQEKSLAAEGRADTTTGSIAGAPEDERSQSTAPQAPECFDPAGPAGLVRPTSGLSQGPGKETLESALIALDSEKPKKLRFHPKQLYFSARQGELQKVLLMLVDGIDPNFKMEHQSKRSPLHAAAEAGHVDICHMLVQAGANIDTCSEDQRTPLMEAAENNHLDAVKYLIKAGAQVDPKDAEGSTCLHLAAKKGHYDVVQYLLSNGQMDVNCQDDGGWTPMIWATEYKHVELVKLLLSKGSDINIRDNEENICLHWAAFSGCVDIAEILLAAKCDLHAVNIHGDSPLHIAARENRYDCVVLFLSRDSDVTLKNKEGETPLQCASLSSQVWSALQMSKALRDSAPDKPVAVEKTVSRDIARGYERIPIPCVNAVDSELCPTNYKYVSQNCVTSPMNIDRNITHLQYCVCVDDCSSSTCMCGQLSMRCWYDKDGRLLPEFNMAEPPLIFECNHACSCWRNCRNRVVQNGLRARLQLYRTQDMGWGVRSLQDIPLGTFVCEYVGELISDSEADVREEDSYLFDLDNKDGEVYCIDARFYGNVSRFINHHCEPNLVPVRVFMSHQDLRFPRIAFFSTRLIQAGEQLGFDYGERFWDVKGKLFSCRCGSSKCRHSSAALAQRQASAAQEPQENGLPDTSSAAAADPL | can recognize H3K9me1 | – | binds H3K9me1 peptides tightly | 12.5 | binds poorly to nucleosomes | 26.3 | binds relatively tightly to H3K9me1 | ~0.233 | slowest of the three enzyme constructs | slowest

From publication PMC8564726, “Heterodimerization of H3K9 histone methyltransferases G9a and GLP activates methyl reading and writing capabilities” (The Journal of Biological Chemistry, 2021)
